± gives the standard deviation of the averaged measurements.
How the values were obtained:
[1] = test system: Saccharomyces cerevisiae; experiment: protein stability index of tFT-peptide fusion (C-terminal peptide) (PSI (0-1 scale)); higher = more stable (slower turnover); settings: genetic background: wild type; temperature: 30 C
[2] = test system: Saccharomyces cerevisiae; experiment: as above
Description: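 MPS profiling in S. cerevisiae of the tFT-X12 degron library: putative degron peptides plus stable controls, 12 aa, fused to the C-terminus of a sfGFP-mCherry timer. Cells are FACS-sorted into 8 mCherry/sfGFP bins and deep-sequenced. PSI runs from 0 (unstable) to 1 (stable). Backgrounds are wild type, das1Δ and doa10Δ at 30 °C, and wild type, das1Δ, cdc34-1 and cdc53-1 at 37 °C; 2-3 technical replicates each.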

[3] = genetic background: cdc34-1, temperature: 37 C
[4] = genetic background: cdc53-1, temperature: 37 C
[5] = genetic background: das1 deletion, temperature: 30 C
[6] = genetic background: das1 deletion, temperature: 37 C
[7] = genetic background: doa10 deletion, temperature: 30 C
[8] = genetic background: wild type, temperature: 30 C
[9] = genetic background: wild type, temperature: 37 C
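Note: PSI is a weighted mean of sequencing reads over stability bins, variants kept only with over 10 reads, mCherry proximal and sfGFP distal, peptide attached via GGGS linker.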

Sequence | protein stability index [1] | protein stability index [2, 3] | protein stability index [2, 4] | protein stability index [2, 5] | protein stability index [2, 6] | protein stability index [2, 7] | protein stability index [2, 8] | protein stability index [2, 9]
VLYLQCITSAGH | 0.246 ± 0.023 | 0.1691 ± 0.00061 | 0.203 ± 0.0061 | 0.273 ± 0.025 | 0.195 ± 0.021 | 0.31 ± 0.044 | 0.29 ± 0.037 | 0.178 ± 0.0088
VMRMVWVLGVMC | 0.299 ± 0.011 | 0.281 ± 0.02 | 0.325 ± 0.047 | 0.251 ± 0.037 | 0.405 ± 0.0087 | 0.178 ± 0.0075 | 0.203 ± 0.028 | 0.35 ± 0.0091
VPSMSIVWCRVL | 0.213 ± 0.048 | 0.383 ± 0.036 | 0.446 ± 0.0055 | 0.417 ± 0.02 | 0.511 ± 0.01 | 0.168 ± 0.01 | 0.123 ± 0.018 | 0.12 ± 0.005
VPSPWVFSLFLH | 0.242 ± 0.033 | 0.594 ± 0.059 | 0.689 ± 0.0095 | 0.604 ± 0.025 | 0.73 ± 0.012 | 0.14 ± 0.0025 | 0.139 ± 0.0022 | 0.283 ± 0.016
VQFISLVCLFRF | 0.414 ± 0.013 | 0.339 ± 0.048 | 0.361 ± 0.0089 | 0.341 ± 0.045 | 0.475 ± 0.036 | 0.346 ± 0.033 | 0.303 ± 0.018 | 0.448 ± 0.039
VQWPLLVVGCMG | 0.399 ± 0.028 | 0.271 ± 0.016 | 0.312 ± 0.04 | 0.263 ± 0.029 | 0.401 ± 0.0053 | 0.211 ± 0.015 | 0.251 ± 0.036 | 0.361 ± 0.011
VSFRISAIFVCV | 0.343 ± 0.044 | 0.232 ± 0.034 | 0.293 ± 0.02 | 0.216 ± 0.033 | 0.367 ± 0.0039 | 0.183 ± 0.011 | 0.202 ± 0.028 | 0.322 ± 0.045
VSPATFLFYFFF | 0.497 ± 0.017 | 0.62 ± 0.022 | 0.688 ± 0.011 | 0.544 ± 0.02 | 0.655 ± 0.0092 | 0.37374 ± 0.00014 | 0.396 ± 0.013 | 0.5607 ± 0.00097
VTFCFLFVWFLV | 0.283 ± 0.048 | 0.269 ± 0.004 | 0.378 ± 0.018 | 0.27 ± 0.028 | 0.413 ± 0.0092 | 0.23 ± 0.015 | 0.226 ± 0.012 | 0.345 ± 0.013
VTGFGVAIVCVT | 0.369 ± 0.084 | 0.263 ± 0.021 | 0.292 ± 0.0042 | 0.254 ± 0.044 | 0.3722 ± 0.0024 | 0.191 ± 0.0072 | 0.241 ± 0.033 | 0.364 ± 0.015
VVFFFKFFLLRL | 0.363 ± 0.026 | 0.262 ± 0.0047 | 0.224 ± 0.025 | 0.318 ± 0.031 | 0.407 ± 0.033 | 0.362 ± 0.018 | 0.246 ± 0.035 | 0.325 ± 0.019
VVGLVSIVQVIM | 0.397 ± 0.041 | 0.43875 ± 0.0003 | 0.488 ± 0.024 | 0.308 ± 0.023 | 0.51 ± 0.027 | 0.279 ± 0.011 | 0.31 ± 0.024 | 0.493 ± 0.014
VVGRWGFVVECW | 0.3595 ± 0.00014 | 0.268 ± 0.014 | 0.301 ± 0.024 | 0.254 ± 0.037 | 0.394 ± 0.0095 | 0.227 ± 0.011 | 0.249 ± 0.025 | 0.366 ± 0.0046
VVGVVVCWGRGW | 0.496 ± 0.046 | 0.603 ± 0.015 | 0.666 ± 0.029 | 0.463 ± 0.024 | 0.653 ± 0.0096 | 0.448 ± 0.019 | 0.469 ± 0.015 | 0.6212 ± 0.0058
VVISRVLAIRLL | 0.237 ± 0.0063 | 0.5452 ± 0.00094 | 0.6095 ± 0.0003 | 0.5 ± 0.027 | 0.6173 ± 0.002 | 0.1324 ± 0.0013 | 0.137 ± 0.028 | 0.228 ± 0.042
VVIWWFSAVVSV | 0.148 ± 0.036 | 0.0446 ± 0.0021 | 0.138 ± 0.026 | 0.0727 ± 0.021 | 0.2 ± 0.013 | 0.0495 ± 0.014 | 0.0622 ± 0.026 | 0.165 ± 0.0031
VVPVGLYSVILV | 0.4269 ± 0.0008 | 0.427 ± 0.012 | 0.447 ± 0.028 | 0.322 ± 0.03 | 0.4839 ± 0.0039 | 0.289 ± 0.0065 | 0.306 ± 0.021 | 0.451 ± 0.02
VVSGLNYCLVLS | 0.3917 ± 0.0038 | 0.48 ± 0.033 | 0.48 ± 0.029 | 0.29 ± 0.042 | 0.523 ± 0.006 | 0.276 ± 0.013 | 0.28 ± 0.039 | 0.4829 ± 0.0021
VVVCSLVPLFVL | 0.34 ± 0.018 | 0.3086 ± 0.0026 | 0.32 ± 0.035 | 0.272 ± 0.03 | 0.41 ± 0.017 | 0.205 ± 0.012 | 0.235 ± 0.029 | 0.318 ± 0.0076
VVVVWVVVEIVR | 0.169 ± 0.036 | 0.147 ± 0.033 | 0.275 ± 0.11 | 0.164 ± 0.022 | 0.279 ± 0.033 | 0.121 ± 0.018 | 0.133 ± 0.024 | 0.178 ± 0.012

Sequence | protein stability index [1] | protein stability index [2, 3] | protein stability index [2, 4] | protein stability index [2, 5] | protein stability index [2, 6] | protein stability index [2, 7] | protein stability index [2, 8] | protein stability index [2, 9]
VVWVYSMLFSIW | 0.276 ± 0.0055 | 0.19 ± 0.02 | 0.3594 ± 0.00053 | 0.231 ± 0.034 | 0.403 ± 0.015 | 0.202 ± 0.013 | 0.221 ± 0.021 | 0.415 ± 0.068
VWFFLLSFANRL | 0.476 ± 0.015 | 0.4767 ± 0.0035 | 0.5386 ± 0.004 | 0.465 ± 0.043 | 0.517 ± 0.0083 | 0.466 ± 0.029 | 0.45 ± 0.0099 | 0.4845 ± 0.00053
VWFGGFVCSVLG | 0.393 ± 0.039 | 0.366 ± 0.019 | 0.361 ± 0.012 | 0.314 ± 0.028 | 0.4478 ± 0.0026 | 0.244 ± 0.0056 | 0.297 ± 0.026 | 0.415 ± 0.018
VWFGGLAVCCGG | 0.396 ± 0.042 | 0.398 ± 0.024 | 0.405 ± 0.037 | 0.303 ± 0.025 | 0.4815 ± 0.0022 | 0.2709 ± 0.0023 | 0.303 ± 0.03 | 0.43156 ± 0.00042
VWYSCWSFLVLF | 0.291 ± 0.024 | 0.444 ± 0.026 | 0.548 ± 0.011 | 0.416 ± 0.034 | 0.55122 ± 0.00022 | 0.2 ± 0.011 | 0.207 ± 0.024 | 0.362 ± 0.035
VYRRKLDRLLCI | 0.332 ± 0.1 | 0.561 ± 0.029 | 0.615 ± 0.025 | 0.512 ± 0.021 | 0.652 ± 0.0088 | 0.171 ± 0.012 | 0.182 ± 0.035 | 0.275 ± 0.005
WAAVGIQLRLLF | 0.3323 ± 0.00057 | 0.354 ± 0.011 | 0.34 ± 0.015 | 0.317 ± 0.034 | 0.47357 ± 9.6e-05 | 0.233 ± 0.026 | 0.199 ± 0.018 | 0.347 ± 0.022
WALVLLVPVWFD | 0.471 ± 0.027 | 0.442 ± 0.031 | 0.553 ± 0.06 | 0.383 ± 0.032 | 0.567 ± 0.011 | 0.396 ± 0.055 | 0.402 ± 0.014 | 0.533 ± 0.0073
WCAGCLGWWLQS | 0.415 ± 0.028 | 0.683 ± 0.059 | 0.8029 ± 0.003 | 0.694 ± 0.015 | 0.791 ± 0.014 | 0.246 ± 0.01 | 0.316 ± 0.038 | 0.548 ± 0.012
WCAMITVFCGSG | 0.34 ± 0.016 | 0.268 ± 0.035 | 0.29 ± 0.041 | 0.214 ± 0.037 | 0.4101 ± 0.0027 | 0.179 ± 0.015 | 0.208 ± 0.033 | 0.3796 ± 0.0026
WCAVRVWFGAAL | 0.505 ± 0.014 | 0.648 ± 0.052 | 0.676 ± 0.028 | 0.5731 ± 0.0039 | 0.693 ± 0.017 | 0.3927 ± 0.0016 | 0.424 ± 0.01 | 0.56132 ± 0.00042
WCCVFVARFFWL | 0.413 ± 0.04 | 0.416 ± 0.013 | 0.504 ± 0.013 | 0.348 ± 0.031 | 0.499 ± 0.014 | 0.334 ± 0.0061 | 0.342 ± 0.011 | 0.44 ± 0.008
WEISNFFGCFIG | 0.428 ± 0.028 | 0.671 ± 0.031 | 0.758 ± 0.026 | 0.683 ± 0.044 | 0.772 ± 0.017 | 0.325 ± 0.0037 | 0.365 ± 0.01 | 0.552 ± 0.071
WFFTDIVMLVRV | 0.273 ± 0.0098 | 0.126 ± 0.014 | 0.12 ± 0.044 | 0.192 ± 0.026 | 0.277 ± 0.0094 | 0.237 ± 0.0069 | 0.193 ± 0.023 | 0.233 ± 0.018
WFSVFTMSILSR | 0.435 ± 0.0096 | 0.416 ± 0.026 | 0.479 ± 0.0075 | 0.338 ± 0.028 | 0.4963 ± 0.0024 | 0.334 ± 0.004 | 0.341 ± 0.018 | 0.474 ± 0.01
WFWVAVGVVGGG | 0.449 ± 0.014 | 0.496 ± 0.029 | 0.534 ± 0.022 | 0.356 ± 0.032 | 0.5243 ± 0.0031 | 0.326 ± 0.016 | 0.358 ± 0.015 | 0.5 ± 0.0082
WGCIFWFFDVRV | 0.386 ± 0.027 | 0.193 ± 0.0065 | 0.335 ± 0.015 | 0.229 ± 0.023 | 0.416 ± 0.018 | 0.203 ± 0.0046 | 0.207 ± 0.025 | 0.402 ± 0.026
WGGEFLSLTLSS | 0.684 ± 0.027 | 0.732 ± 0.028 | 0.761 ± 0.018 | 0.664 ± 0.02 | 0.7821 ± 0.0073 | 0.679 ± 0.025 | 0.683 ± 0.021 | 0.743 ± 0.025
WGIPRRPTLFIP | 0.434 ± 0.015 | 0.65 ± 0.0098 | 0.749 ± 0.03 | 0.658 ± 0.011 | 0.7417 ± 0.00092 | 0.296 ± 0.023 | 0.325 ± 0.035 | 0.5193 ± 0.0044
